{"source": "paper doi:10.64898/2025.12.22.696049", "about": "(bioRxiv, 2025)", "assay_in_all_cases": "cryo-EM structure", "key": {"[1]": {"biological_target": "S. cerevisiae fatty acid synthase subunit FAS1/ß (S. cerevisiae (endogenous in W303 or BY4742 cells)) (UniProt P07149)"}, "[2]": {"biological_target": "S. pombe fatty acid synthase subunit FAS1/ß (S. pombe (endogenous in K972 cells)) (UniProt Q9UUG0)"}, "[3]": {"biological_target": "the molecule itself"}}}
{"molecule": "S. cerevisiae fatty acid synthase subunit FAS1/ß, P07149 1-2051", "values": [{"measurement": "stoichiometry N", "setting": "[1]", "result": 3}]}
{"molecule": "S. pombe fatty acid synthase subunit FAS1/ß, Q9UUG0 1-2073", "values": [{"measurement": "stoichiometry N", "setting": "[2]", "result": 3}]}
{"molecule": "S. pombe fatty acid synthase subunit FAS2/α (enzyme, S. pombe (endogenous in K972 cells), UniProt Q10289 1-1842, looked up) MRPEVEQELAHTLLLELLAYQFASPVRWIETQDVILSPPVSAERIVEIGPSPTLAGMAKRTLKLKYENMDAALSINREVLCYSKDAREIYYNFEDEVADEPAEAPASTSSTPKVETAAAAAPAATPAPAPAQTSAPAAALPDEPPKALEVLHTLVAQKLKKSIEEVSPQKSIKDLVGGKSTLQNEILGDLQKEFGATPEKPEEVPLDELGAIMQSSFNGSLGKQSSSLISRMISSKMPGGFNNSAVRGYLGNRYGLGPGRLESVLLLALTMEPASRLGSEADAKAWLDSVAQKYAARNGVTLSSPTAEGGSSSGSAAVIDEETFKKLTKNNTMLVTQQLELFARYLNKDLRAGQKAQVAEKVISDTLRAQLDLWNEEHGEFYASGIAPIFSPLKARVYDSDWNWARQDALKMFFDIIFGRLKHVDTEIVARCISVMNRSNPTLLEFMQYHIDHCPAEKGETYQLAKTLGQQLIDNCKSVIDAPPVFKNVNHPTAPSTTIDERGNLNYEEIPRPGVRKLTHYVTEMAKGGKLPTESKNKAKVQNDLARIYRIIKSQNKMSRSSKLQIKQLYGQVLHALSLPLPSSNDEQTPVKETIPFLHIRKKSVDGNWEFNKSLTGTYLDVLESGAKNGITYQDKYALVTGAGAGSIGAQIVEGLLAGGAKVVVTTSRFSRKVTEFYQSLYTRHGSRGSCLIVVPFNQGSKTDVEALIDYIYDEKKGLGWNLDYIVPFAAIPENGREIDGIDSRSEFAHRIMLTNILRLLGAVKSQKASRGMDTRPAQVILPLSPNHGTFGNDGLYSESKLGLETLFNRWYSESWANYLTICGAVIGWTRGTGLMAPNNIVSQGIEKYGVRTFSQSEMAFNILGLMSQKVVDLCQSEPIYANLNGGLELLPDLKDLSTRLRTELLETAEIRRAVAAETAFDHSITNGPDSEAVFQKTAIQPRANLKFNFPKLKPYEALSHLSDLRGMVDLEKVPVVTGFSEVGPWGNSRTRWDMECYGEFSLEGCVEIAWIMGLIKNFNGKGKDGKPYSGWVDTKTGEPVDDKDVKAKYEKYILEHCGIRIIEAELFHGYNPEKKELLQEVVIDHDLEPFEASKEAAHEFKLRHGDQVEIFEIPDSTEWSVRFKRGTSMLIPKALRFDRFVAGQIPLGWDPKRYGIPDDIISQVDPTTLYVLVSTVEALVASGITDPYECYKYIHVSELGNTVGSGIGGMSALRGMYKDRWTDKPVQKDILQESFINTANAWINMLLLSASGPIKTPVGACATAVESVDAAVDLITSGKARICISGGYDDFSEEGSYEFANMGATSNAAKETERGRTPQEMSRPATSTRDGFMESQGAGVQIIMQAKLAIEMGVPIHGIVGYVSTAMDKQGRSVPAPGQGILTGAREIATKTPLPIVDLKFRSRQLQRRRSQIGEWAEREYLYLEEELDAMKVQNPDLDLEAYRIERINVIKEEVVRQEKEALNTFGNEFWKRDPTIAPIRGALAVWGLTIDDLGVASFHGTSTKANEKNECDVIDSQLTHLGRSKGNAVYGVFQKYLTGHSKGGAGAWMLNGALQILRSGFVPGNRNADNIDEYLARFDRVMFPSEGIQTDGIKAASVTAFGFGQVGGQVIVIHPDYIYGVIDEATYNAYKAKTAARYKASYRYTHDALVYNNLVRAKDSPPYTKEQEKAVYLNPLARASKSKAGTWTFPATLPAESDISKTNETTRTLQSLTTSLTNSNENVGVDVELVSAISIDNETFIERNFTDTERKYCFAAPNPQASFAGRWSAKEAVFKSLGISGKGAAAPLKDIEIISSESGAPEVVLHGEAAKAATTAGVKSVSVSISHDDNQSVSVALAHK", "values": [{"measurement": "stoichiometry N", "setting": "[3]", "result": 6}]}
{"molecule": "S. cerevisiae fatty acid synthase subunit FAS2/α (enzyme, UniProt P19097 1-1887, looked up) MKPEVEQELAHILLTELLAYQFASPVRWIETQDVFLKDFNTERVVEIGPSPTLAGMAQRTLKNKYESYDAALSLHREILCYSKDAKEIYYTPDPSELAAKEEPAKEEAPAPTPAASAPAPAAAAPAPVAAAAPAAAAAEIADEPVKASLLLHVLVAHKLKKSLDSIPMSKTIKDLVGGKSTVQNEILGDLGKEFGTTPEKPEETPLEELAETFQDTFSGALGKQSSSLLSRLISSKMPGGFTITVARKYLQTRWGLPSGRQDGVLLVALSNEPAARLGSEADAKAFLDSMAQKYASIVGVDLSSAASASGAAGAGAAAGAAMIDAGALEEITKDHKVLARQQLQVLARYLKMDLDNGERKFLKEKDTVAELQAQLDYLNAELGEFFVNGVATSFSRKKARTFDSSWNWAKQSLLSLYFEIIHGVLKNVDREVVSEAINIMNRSNDALIKFMEYHISNTDETKGENYQLVKTLGEQLIENCKQVLDVDPVYKDVAKPTGPKTAIDKNGNITYSEEPREKVRKLSQYVQEMALGGPITKESQPTIEEDLTRVYKAISAQADKQDISSSTRVEFEKLYSDLMKFLESSKEIDPSQTTQLAGMDVEDALDKDSTKEVASLPNKSTISKTVSSTIPRETIPFLHLRKKTPAGDWKYDRQLSSLFLDGLEKAAFNGVTFKDKYVLITGAGKGSIGAEVLQGLLQGGAKVVVTTSRFSKQVTDYYQSIYAKYGAKGSTLIVVPFNQGSKQDVEALIEFIYDTEKNGGLGWDLDAIIPFAAIPEQGIELEHIDSKSEFAHRIMLTNILRMMGCVKKQKSARGIETRPAQVILPMSPNHGTFGGDGMYSESKLSLETLFNRWHSESWANQLTVCGAIIGWTRGTGLMSANNIIAEGIEKMGVRTFSQKEMAFNLLGLLTPEVVELCQKSPVMADLNGGLQFVPELKEFTAKLRKELVETSEVRKAVSIETALEHKVVNGNSADAAYAQVEIQPRANIQLDFPELKPYKQVKQIAPAELEGLLDLERVIVVTGFAEVGPWGSARTRWEMEAFGEFSLEGCVEMAWIMGFISYHNGNLKGRPYTGWVDSKTKEPVDDKDVKAKYETSILEHSGIRLIEPELFNGYNPEKKEMIQEVIVEEDLEPFEASKETAEQFKHQHGDKVDIFEIPETGEYSVKLLKGATLYIPKALRFDRLVAGQIPTGWNAKTYGISDDIISQVDPITLFVLVSVVEAFIASGITDPYEMYKYVHVSEVGNCSGSGMGGVSALRGMFKDRFKDEPVQNDILQESFINTMSAWVNMLLISSSGPIKTPVGACATSVESVDIGVETILSGKARICIVGGYDDFQEEGSFEFGNMKATSNTLEEFEHGRTPAEMSRPATTTRNGFMEAQGAGIQIIMQADLALKMGVPIYGIVAMAATATDKIGRSVPAPGKGILTTAREHHSSVKYASPNLNMKYRKRQLVTREAQIKDWVENELEALKLEAEEIPSEDQNEFLLERTREIHNEAESQLRAAQQQWGNDFYKRDPRIAPLRGALATYGLTIDDLGVASFHGTSTKANDKNESATINEMMKHLGRSEGNPVIGVFQKFLTGHPKGAAGAWMMNGALQILNSGIIPGNRNADNVDKILEQFEYVLYPSKTLKTDGVRAVSITSFGFGQKGGQAIVVHPDYLYGAITEDRYNEYVAKVSAREKSAYKFFHNGMIYNKLFVSKEHAPYTDELEEDVYLDPLARVSKDKKSGSLTFNSKNIQSKDSYINANTIETAKMIENMTKEKVSNGGVGVDVELITSINVENDTFIERNFTPQEIEYCSAQPSVQSSFAGTWSAKEAVFKSLGVKSLGGGAALKDIEIVRVNKNAPAVELHGNAKKAAEEAGVTDVKVSISHDDLQAVAVAVSTKK", "values": [{"measurement": "stoichiometry N", "setting": "[3]", "result": 6}]}
